These results are taken from paper PMC8938253.

This data set concerns the target rhAChE (recombinant human acetylcholinesterase) (Homo sapiens, UniProt P22303 32-614). The data set is described as follows: indirect ELISA.

Sequence of rhAChE (recombinant human acetylcholinesterase) (P22303 32-614): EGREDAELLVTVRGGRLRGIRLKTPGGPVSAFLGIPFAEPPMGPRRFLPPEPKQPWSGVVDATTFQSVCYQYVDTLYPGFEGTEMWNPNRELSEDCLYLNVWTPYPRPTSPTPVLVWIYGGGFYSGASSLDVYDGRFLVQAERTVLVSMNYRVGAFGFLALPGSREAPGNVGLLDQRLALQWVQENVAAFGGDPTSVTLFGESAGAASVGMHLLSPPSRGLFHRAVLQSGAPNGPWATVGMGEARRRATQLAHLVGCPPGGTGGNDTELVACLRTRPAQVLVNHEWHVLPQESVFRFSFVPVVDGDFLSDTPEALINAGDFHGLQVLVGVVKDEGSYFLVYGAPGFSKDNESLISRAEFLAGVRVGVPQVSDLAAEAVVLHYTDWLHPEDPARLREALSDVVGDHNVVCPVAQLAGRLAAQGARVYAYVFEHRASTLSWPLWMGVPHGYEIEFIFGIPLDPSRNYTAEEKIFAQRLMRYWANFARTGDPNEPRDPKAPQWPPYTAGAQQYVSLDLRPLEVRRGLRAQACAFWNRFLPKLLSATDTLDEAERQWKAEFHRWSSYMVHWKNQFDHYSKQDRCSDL

B1: Ob2 (ssDNA)
DNA: TAATACGACTCACTATAGCAATGGTACGGTACTTCCCTTCGAAAACACCCTGCCCCTCACACAAAAGTGCACGCTACTTTGCTAA
B1: the Kd is 17.1 ± 9.86 nM.
